# In patent publication US20240239864A1:
# Biological target: HLA-A2 (HLA-A*02:01) on cells (T2 cells; K562A2 cells) (human)
# Experiment: T2 peptide-binding assay: T2 cells with peptide at 100 µg/mL overnight, surface HLA-A2 by flow cytometry (T2 only: 3.34E+05)
substance,measurement,value
HPV-16 E7 p11-19 peptide (from UniProt P03129 11-19),Mean Fluorescence Intensity (surface HLA-A2),492000
